Literature values as cited in publication PMC11638072.

Target: Trigger factor (Escherichia coli) (UniProt P0A850)

Trigger factor, sequence (P0A850 whole entry): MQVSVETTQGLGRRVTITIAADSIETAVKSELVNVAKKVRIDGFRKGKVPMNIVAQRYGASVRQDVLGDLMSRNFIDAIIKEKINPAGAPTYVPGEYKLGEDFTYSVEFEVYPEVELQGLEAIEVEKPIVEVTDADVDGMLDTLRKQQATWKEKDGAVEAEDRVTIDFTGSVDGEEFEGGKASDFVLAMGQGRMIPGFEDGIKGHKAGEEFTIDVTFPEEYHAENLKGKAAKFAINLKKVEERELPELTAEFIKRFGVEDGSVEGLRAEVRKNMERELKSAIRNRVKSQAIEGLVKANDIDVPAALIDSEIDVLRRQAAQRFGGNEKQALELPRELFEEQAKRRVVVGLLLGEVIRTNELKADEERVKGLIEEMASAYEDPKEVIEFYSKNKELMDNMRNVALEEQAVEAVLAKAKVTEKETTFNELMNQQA

Trigger factor (from UniProt P0A850)
Kd: 1000 nM
